In paper PMC6386588 (Molecular cell, 2019):

Molecular target: H-Ras protein: His tagged: human wild type (MST) (human, UniProt P01112 1-189)
Experiment: MST

Sequence of H-Ras protein: His tagged: human wild type (MST) (P01112 whole entry): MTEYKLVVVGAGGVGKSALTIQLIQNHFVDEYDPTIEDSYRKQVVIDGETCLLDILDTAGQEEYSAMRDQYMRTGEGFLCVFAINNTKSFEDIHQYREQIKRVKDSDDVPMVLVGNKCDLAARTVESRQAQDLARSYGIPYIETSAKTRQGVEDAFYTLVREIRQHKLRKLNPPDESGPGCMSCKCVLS

B1: FHH:MAPKAP1^RBD (AA279-353) (domain or fragment, UniProt Q9BPZ7 279-353, looked up)
chain: LFVRINAAHGFSLIQVDNTKVTMKEILLKAVKRRKGSQKVSGPQYRLEKQSEPNVAVDLDSTLESQSAWEFCLVR
modifications: RED-tris-NTA dye on the His tag (Monolith His-Tag Labeling Kit)
**Q.** Does B1 bind?
**A.** Result: binds
